Values of other authors as cited in publication PMC4237619.
Like-named read-outs stand apart in the source and are kept apart here.

Experiments:
VEGF (Homo sapiens) [1] = molecular target: VEGF (Homo sapiens) (UniProt P15692)
VEGF (Homo sapiens) [2] = molecular target: VEGF (Homo sapiens) (UniProt P15692); remark: listed apart in the source
VEGF (Homo sapiens) [3] = molecular target: VEGF (Homo sapiens) (UniProt P15692); remark: listed apart in the source

Sequence of UniProt P15692 (P15692 whole entry): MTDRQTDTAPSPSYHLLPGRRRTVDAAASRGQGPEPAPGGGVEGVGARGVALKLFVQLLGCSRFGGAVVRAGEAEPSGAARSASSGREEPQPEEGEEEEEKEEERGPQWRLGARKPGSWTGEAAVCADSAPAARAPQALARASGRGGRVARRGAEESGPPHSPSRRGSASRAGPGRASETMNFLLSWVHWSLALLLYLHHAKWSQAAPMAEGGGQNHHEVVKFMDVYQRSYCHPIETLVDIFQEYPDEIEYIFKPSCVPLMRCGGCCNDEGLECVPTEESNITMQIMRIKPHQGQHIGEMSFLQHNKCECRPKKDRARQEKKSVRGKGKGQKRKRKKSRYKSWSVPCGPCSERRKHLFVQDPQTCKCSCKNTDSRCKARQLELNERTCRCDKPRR

ATWLPPR peptide
Kd (VEGF (Homo sapiens) [1]): 0.33 nM

NH2-GGGG-SY(SO3)DY(SO3)GGGG-OH peptide
Kd (VEGF (Homo sapiens) [2]): 910 nM

SY(SO3)DY(SO3)G peptide
Kd (VEGF (Homo sapiens) [3]): 3100 nM
